# Measurements: US6071715, “Nucleic acids encoding novel proteins which bind to retinoblastoma protein” (Board of Regents, The University of Texas System, dated 2000)
# B1: chimeric p48 protein containing a modified C-terminus, encoded by plasmid pET-48NB (other)
# chain: MADKEAAFDDAVEERVINEEYKIWKKNTPFLYDLVMTHALEWPSLTAQWLPDVTRPEGKDFSIHRLVLGTHTSDEQNHLVIASVQLPNDDAQFDASHYDSEKGEFGGFGSVSGKIEIEIKINHEGEVNRARYMPQNPCIIATKTPSSDVLVFDYTKHPSKPDPSGECNPDLRLRGHQKEGYGLSWNPNLSGHLLSASDDHTICLWDISAVPKEGKVVDAKTIFTGHTAVVEDVSWHLLHESLFGSVADDQKLMIWDTRSNNTSKPSHSVDAHTAEVNCLSFNPYSEFILATGSADKTVALWDLRNLKLKLHSFESHKDEIFQVQWSPHNETILASSGTDRRLNVWDLSKIGEEQSPEDAEDGPPELLFIHGGHTAKISDFSWNPNEPWVICSVSEDNIMQVWQMAENIYNDEDPEGSVDPAANKARKEAELAAANAEQ
# Target: p56Rb, carboxyl terminus of the Rb protein (Homo sapiens (Human), UniProt P06400)
# Test: native polyacrylamide gel of the purified proteins, silver stain
binder,measurement,value
B1,binding result,binds
